Measurements from the supplement of paper PMC9732359.
± gives the uncertainty stated by the source.

Experiment: protein stability index of a GFP-peptide fusion (yeast GPS) (PSI 1-4); higher = more stable; sorted into four equal gates, so the index is relative within each strain
Outline: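 Mid-log yeast cultures in leucine-free medium, carrying a pooled plasmid library, were sorted into four equal gates by their GFP/Cherry fluorescence ratio. Each plasmid expressed Cherry along with GFP fused upstream of a tiled 17-residue yeast protein peptide. Plasmids recovered from each gate were PCR-amplified and Illumina-sequenced, with reads assigned to strains by barcodes. The protein stability index was obtained by summing each gate's read frequency weighted by its gate number.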

Sequence | protein stability index (doa10∆) | protein stability index (pdr5∆) | protein stability index (san1∆) | protein stability index (ubr1∆)
DGFKIYDNEKTAELIKE [PUP2] | 3.29 ± 0.1 | 3.32 ± 0.15 | 3.15 ± 0.061 | 3.18 ± 0.13
DGGLEEETDEVSSESSD [SIR3] | 3.3 ± 0.099 | 3.3 ± 0.11 | 3.2 ± 0.089 | 3.24 ± 0.086
DGIVVKNAVVRSKFGGD [ARP7] | 3.24 ± 0.26 | 1.92 ± 0.2 | 3.16 ± 0.25 | 3.56 ± 0.2
DGKEDVEKGTPLGKILL [SME1] | 3.57 ± 0.071 | 3.44 ± 0.09 | 3.53 ± 0.053 | 3.56 ± 0.075
DGLEKAAFNGVTFKDKY [FAS2] | 1.94 ± 0.083 | 1.57 ± 0.096 | 1.85 ± 0.14 | 2.09 ± 0.12
DGMDAAHIEKQSLDTIG [RPO21] | 3.36 ± 0.088 | 3.29 ± 0.095 | 3.24 ± 0.093 | 3.05 ± 0.083
DGNNEIFTCQIMNLITN [RPN4] | 2.09 ± 0.083 | 2.62 ± 0.18 | 2.35 ± 0.2 | 2.35 ± 0.25
DGTAKEVGDEADNTKDK [MED4] | 3.06 ± 0.11 | 3.18 ± 0.12 | 3.34 ± 0.088 | 3.22 ± 0.077
DHDDSTDDADDHINWEH [NSL1] | 3.31 ± 0.088 | 3.31 ± 0.094 | 3.26 ± 0.056 | 3.35 ± 0.04
DHHPEGLSAREAVKQAA [PRE10] | 3.02 ± 0.095 | 2.53 ± 0.066 | 2.67 ± 0.082 | 2.69 ± 0.049
DHILFTKTFIFIYKKVL [SRB8] | 1.49 ± 0.091 | 1.14 ± 0.14 | 1.15 ± 0.13 | 1.11 ± 0.044
DHKFPIRENKVTYSRVS [BRN1] | 2.75 ± 0.13 | 2.9 ± 0.11 | 3.01 ± 0.097 | 2.66 ± 0.087
DIEFINSLLTIVWRFIS [RPC34] |  | 2.91 ± 0.23 | 2.51 ± 0.21 | 2.12 ± 0.14
DIEIVRVNKNAPAVELH [FAS2] | 2.87 ± 0.061 | 3.08 ± 0.064 | 3.24 ± 0.091 | 2.96 ± 0.049
DIENKEEEYDETHETNI [YAR002W/NUP60] | 3.34 ± 0.071 | 3.21 ± 0.087 | 3.42 ± 0.083 | 3.33 ± 0.064
DIFGDSELFDEWFEQNN [ISW2] | 2.36 ± 0.069 | 2.49 ± 0.072 | 1.31 ± 0.15 | 1.63 ± 0.056
DIGKGAETTFLQDVIAL [RPC53] | 2.52 ± 0.073 | 2.31 ± 0.1 | 2.38 ± 0.11 | 2.71 ± 0.056
DIIMNPHGFPSRMTVGK [RET1] | 2.67 ± 0.056 | 2.83 ± 0.076 | 2.79 ± 0.049 | 2.71 ± 0.065
DIINAVNEIMYKCTAAM [MTW1] | 2.73 ± 0.089 | 2.77 ± 0.1 | 2.84 ± 0.11 | 2.33 ± 0.072
DIKAAVDDSMELCGQIR [ITC1] | 2.65 ± 0.092 | 2.82 ± 0.12 | 2.21 ± 0.17 | 2.9 ± 0.14
DILLRLCVLWDDLQSSV [YCG1] | 1.65 ± 0.067 | 1.4 ± 0.051 | 1.72 ± 0.087 | 2.11 ± 0.07
DINTVNTNLMNGVNVQI [GRR1] | 3.21 ± 0.097 | 3 ± 0.087 | 2.98 ± 0.074 | 3.06 ± 0.073
DIPPPAIMKPYYLWTGK [RPO31] | 2.74 ± 0.068 | 2.77 ± 0.075 | 2.9 ± 0.074 | 2.79 ± 0.047
DIQAMCTEAGLLALRER [RPT2] | 2.65 ± 0.088 | 3.33 ± 0.12 | 3.33 ± 0.047 | 3.26 ± 0.055
DIQLKNLFPLKPKMLPI [SRP68] | 2.78 ± 0.077 | 2.66 ± 0.057 | 2.4 ± 0.058 | 2.46 ± 0.073

Sequence | protein stability index (doa10∆) | protein stability index (pdr5∆) | protein stability index (san1∆) | protein stability index (ubr1∆)
DITTSIMDNFLERTAIE [RPN1] | 3.21 ± 0.12 | 3.35 ± 0.17 | 3.22 ± 0.086 | 3.28 ± 0.12
DIVQYHLELYTSQYGTP [PRE3] | 2.1 ± 0.063 | 1.74 ± 0.058 | 1.77 ± 0.07 | 2 ± 0.042
DIWQSRDQGNDSLNDDL [YIL149C/MLP2] | 3.53 ± 0.28 |  | 3.65 ± 0.17 | 3.76 ± 0.14
DKEKEENNDDALDLDLD [MED4] | 2.92 ± 0.072 | 3.12 ± 0.095 | 2.95 ± 0.063 | 3.16 ± 0.054
DKFSPEDGLGPLMAKSV [ARP7] | 3.02 ± 0.11 | 3.06 ± 0.11 | 2.66 ± 0.13 | 3.39 ± 0.097
DKITLHDEKTLAPSKHQ [SIR4] |  | 2.68 ± 0.16 | 2.44 ± 0.2 | 2.92 ± 0.19
DKKNKRLKFGHRLIATH [SNF2] | 2.02 ± 0.077 | 1.8 ± 0.057 | 1.85 ± 0.091 | 2 ± 0.056
DKLICSIDPPGCVDIDD [DIS3] | 3.33 ± 0.068 | 3.11 ± 0.062 | 2.78 ± 0.068 | 3.14 ± 0.091
DKNKLLLLAAQIVSYCS [SSN2] | 1.97 ± 0.039 | 1.66 ± 0.038 | 2.05 ± 0.06 | 1.74 ± 0.037
DKSTTQLRKEIQLLDEN [MED11] | 1.56 ± 0.093 | 1.54 ± 0.086 | 1.71 ± 0.17 | 1.55 ± 0.068
DKTLRLWDVATGETYQR [ASC1] | 3 ± 0.23 | 3.36 ± 0.16 | 2.18 ± 0.19 | 3.42 ± 0.091
DKVDDYTPEEVDKIERE [SMC4] | 1.17 ± 0.11 | 1.45 ± 0.12 | 1.32 ± 0.22 | 1.28 ± 0.11
DKVSSCFPQYVNSKQGA [NNF1] | 2.07 ± 0.088 | 2.23 ± 0.091 | 2.11 ± 0.12 | 2.95 ± 0.092
DLCDVVESKFTEKIKSM [RPC19] | 3.43 ± 0.2 | 2.9 ± 0.11 | 3.33 ± 0.1 | 3.44 ± 0.077
DLENSPLKTELEANGRS [SSN2] | 3.6 ± 0.094 | 3.59 ± 0.093 | 3.17 ± 0.096 | 3.51 ± 0.089
DLESSSPELKADLRPLQ [RPS7B] | 2.89 ± 0.29 | 2.97 ± 0.21 |  | 3.27 ± 0.17
DLEWQELTSFSSQPLEP [DSN1] | 3.05 ± 0.054 | 3.05 ± 0.053 | 2.98 ± 0.054 | 2.98 ± 0.036
DLKFKRHKNKHIQGFPT [DSN1] | 3.15 ± 0.13 | 3.38 ± 0.28 | 1.75 ± 0.12 | 2.98 ± 0.12
DLKIEKLVLNISVGESG [RPL11A] | 2.81 ± 0.12 | 2.66 ± 0.095 | 2.52 ± 0.09 | 1.89 ± 0.09
DLKNTRMKSITSTSQKI [SNF5] | 3.23 ± 0.082 | 3.14 ± 0.074 | 3.17 ± 0.045 | 3.08 ± 0.05
DLLKLVHLSNGYKMIPG [FAS1] | 2.3 ± 0.057 | 2.46 ± 0.055 | 2.14 ± 0.064 | 2.24 ± 0.039
DLNKENKLLRRKLMEME [YIL149C/MLP2] | 3.41 ± 0.2 | 2.95 ± 0.21 | 3.33 ± 0.11 | 
DLSANQRETMKERKLRE [SMC1] | 3.3 ± 0.13 | 3.06 ± 0.096 | 2.96 ± 0.091 | 3.42 ± 0.063
DLSRIMDWLDNWGRKEH [ITC1] | 3.31 ± 0.2 | 3.33 ± 0.26 | 3.48 ± 0.14 | 
DLSVTPQKSSSKGFVFN [YAR002W/NUP60] | 2.74 ± 0.089 | 3.06 ± 0.12 | 2.88 ± 0.057 | 3.06 ± 0.12

Sequence | protein stability index (doa10∆) | protein stability index (pdr5∆) | protein stability index (san1∆) | protein stability index (ubr1∆)
DLSYIEFLFESLKNDLP [ECM29] | 2.84 ± 0.13 | 2.65 ± 0.14 | 2.78 ± 0.083 | 3.13 ± 0.12
DLTGSEPIKEIIDNWEK [FAS1] |  | 2.79 ± 0.15 |  | 3.07 ± 0.16
DLVIVDENELKKSEEKL [MTW1] | 3.51 ± 0.19 |  |  | 
DMATGSNDTTAFNDSCV [SRB8] | 2.73 ± 0.05 | 3.07 ± 0.06 | 3.14 ± 0.045 | 2.86 ± 0.037
DMPCDVLAKRMANLSQI [SCL1] | 1.71 ± 0.09 | 1.4 ± 0.064 | 1.6 ± 0.17 | 1.61 ± 0.076
DMVMATVKKGKPELRKK [RPL23A] | 3.49 ± 0.15 | 3.35 ± 0.18 | 3.54 ± 0.1 | 3.22 ± 0.11
DNDTVVTNDDKSDDDDH [SRB8] |  | 2.88 ± 0.15 | 3.24 ± 0.26 | 3.19 ± 0.11
DNGLGPLKYAPHLPFSK [SWI3] | 3.13 ± 0.058 | 3.22 ± 0.069 | 2.85 ± 0.07 | 3.21 ± 0.058
DNMITGVTKGYKYKMRY [RPL9A] | 3.07 ± 0.096 | 3.3 ± 0.14 | 2.92 ± 0.27 | 3.1 ± 0.067
DNPDQGISDMCRLFFTE [YCS4] | 3.37 ± 0.14 | 3.63 ± 0.15 | 3.03 ± 0.14 | 3.04 ± 0.15
DNSEYSRNGDFPRTRFE [RPN10] | 3.13 ± 0.2 | 3.12 ± 0.22 | 3.45 ± 0.16 | 3.49 ± 0.17
DNSVEQGRRLGESIMSE [MCD1] |  | 3.41 ± 0.22 |  | 3.33 ± 0.12
DNTARVIFDASIKDTQN [BRN1] | 2.1 ± 0.078 | 2.06 ± 0.064 | 2.42 ± 0.1 | 2.68 ± 0.048
DNTSHDEQDDDNVNSTT [BRN1] | 3 ± 0.073 | 3.19 ± 0.088 | 3.17 ± 0.1 | 3.23 ± 0.062
DNVDDIGEFNVSMYQNS [YDL088C/ASM4] | 3.41 ± 0.23 | 3.05 ± 0.28 | 2.94 ± 0.22 | 3.19 ± 0.23
DNYFNLQLNEAEEFVAG [SMX3] | 2.76 ± 0.16 | 2.8 ± 0.16 | 2.5 ± 0.1 | 3.12 ± 0.12
DPAHSLNYTVINFKSRE [AAR2] | 3.07 ± 0.054 | 3.1 ± 0.059 | 3.14 ± 0.046 | 3.22 ± 0.037
DPEEVEQQVAEEATTEE [RPS0A] | 3.3 ± 0.086 | 3.33 ± 0.097 | 3.1 ± 0.077 | 3.56 ± 0.077
DPKSPTKRSIAIVFEEI [YMR129W/POM152] | 2.73 ± 0.074 | 2.97 ± 0.087 | 2.77 ± 0.055 | 2.72 ± 0.078
DPLNSNIFSEAVKNKYN [PRP28] | 1.81 ± 0.17 | 2.74 ± 0.11 | 3.02 ± 0.09 | 2.92 ± 0.096
DPQQVFDERIKFANQLH [RPN3] | 1.68 ± 0.09 | 1.97 ± 0.12 | 1.41 ± 0.14 | 1.33 ± 0.075
DPSGSYFPWKATAIGKG [PRE8] | 2.93 ± 0.1 | 2.68 ± 0.11 | 2.82 ± 0.077 | 3.13 ± 0.075
DQDRGAARHKQHEQGTF [RRI2] | 3.21 ± 0.1 | 2.99 ± 0.23 |  | 
DQEKKYGMSITETFEKP [RPB2] | 2.85 ± 0.11 | 3.4 ± 0.18 | 3.15 ± 0.096 | 3.5 ± 0.1
